JP2017222678A (dated 2017)

T1: ヒトTFPI (human tissue factor pathway inhibitor; American Diagnostica) (human, UniProt P10646 29-304, limits assumed)
T1 construct: Coated on plates (ELISA) or amine-coupled to a CM5 chip (Biacore); also called h-TFPI; hTFPI
T1 sequence (looked up): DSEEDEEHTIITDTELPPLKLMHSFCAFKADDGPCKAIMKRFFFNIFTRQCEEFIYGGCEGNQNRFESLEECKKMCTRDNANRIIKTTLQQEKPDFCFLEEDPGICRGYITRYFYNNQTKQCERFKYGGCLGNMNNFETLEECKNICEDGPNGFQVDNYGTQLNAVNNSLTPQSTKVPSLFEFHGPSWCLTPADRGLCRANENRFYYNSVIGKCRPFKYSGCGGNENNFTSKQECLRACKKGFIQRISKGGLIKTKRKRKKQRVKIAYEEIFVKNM

T2: マウスTFPI (mouse TFPI; R&D System) (mouse, UniProt O54819 29-289, limits assumed)
T2 construct: also called m-TFPI; mTFPI
T2 sequence (looked up): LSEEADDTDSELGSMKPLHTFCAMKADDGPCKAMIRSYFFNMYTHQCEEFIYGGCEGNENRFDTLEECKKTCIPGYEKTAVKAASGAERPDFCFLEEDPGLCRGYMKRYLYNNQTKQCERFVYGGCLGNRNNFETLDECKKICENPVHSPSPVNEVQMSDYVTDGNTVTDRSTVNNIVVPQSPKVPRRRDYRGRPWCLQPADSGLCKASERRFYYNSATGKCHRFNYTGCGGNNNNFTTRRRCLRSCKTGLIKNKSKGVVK


target: T1, ヒトTFPI (human tissue factor pathway …); assay: ELISA on coated human TFPI

Row | EC50 [nM] | fold improvement of EC50 against 2G6-Fab [fold] | Binder
1 | 0.48 | – | TP-2G6 (Fab, V domains shown, HuCAL Gold human Fab from E. coli TG1; also called 2G6-Fab) VH: QVQLQQSGPGLVKPSQTLSLTCAISGDSVSSSSAAWSWIRQSPGRGLEWLGIIYYRSKWYNDYAVSVKSRITINPDTSKNQFSLQLNSVTPEDTAVYYCARHSMVGFDVWGQGTLVTVSS VL: DIVLTQSPATLSLSPGERATLSCRASQYVTSSYLAWYQQKPGQAPRLLIYGSSRATGVPARFSGSGSGTDFTLTISSLEPEDFATYYCQQYSSSPITFGQGTKVEIKR
2 | 0.22 | 2 | 2G6-IgG (antibody, V domains shown, also called IgG-2G6; TP-2G6 after conversion to IgG) VH: QVQLQQSGPGLVKPSQTLSLTCAISGDSVSSSSAAWSWIRQSPGRGLEWLGIIYYRSKWYNDYAVSVKSRITINPDTSKNQFSLQLNSVTPEDTAVYYCARHSMVGFDVWGQGTLVTVSS VL: DIVLTQSPATLSLSPGERATLSCRASQYVTSSYLAWYQQKPGQAPRLLIYGSSRATGVPARFSGSGSGTDFTLTISSLEPEDFATYYCQQYSSSPITFGQGTKVEIKR

target: T2, マウスTFPI (mouse TFPI; R&D System); assay: ELISA on coated mouse TFPI

Row | EC50 [nM] | fold improvement of EC50 against 2G6-Fab [fold] | Binder
3 | 5.18 | – | TP-2G6 (Fab, V domains shown, HuCAL Gold human Fab from E. coli TG1; also called 2G6-Fab) VH: QVQLQQSGPGLVKPSQTLSLTCAISGDSVSSSSAAWSWIRQSPGRGLEWLGIIYYRSKWYNDYAVSVKSRITINPDTSKNQFSLQLNSVTPEDTAVYYCARHSMVGFDVWGQGTLVTVSS VL: DIVLTQSPATLSLSPGERATLSCRASQYVTSSYLAWYQQKPGQAPRLLIYGSSRATGVPARFSGSGSGTDFTLTISSLEPEDFATYYCQQYSSSPITFGQGTKVEIKR
4 | 0.51 | 10 | 2G6-IgG (antibody, V domains shown, also called IgG-2G6; TP-2G6 after conversion to IgG) VH: QVQLQQSGPGLVKPSQTLSLTCAISGDSVSSSSAAWSWIRQSPGRGLEWLGIIYYRSKWYNDYAVSVKSRITINPDTSKNQFSLQLNSVTPEDTAVYYCARHSMVGFDVWGQGTLVTVSS VL: DIVLTQSPATLSLSPGERATLSCRASQYVTSSYLAWYQQKPGQAPRLLIYGSSRATGVPARFSGSGSGTDFTLTISSLEPEDFATYYCQQYSSSPITFGQGTKVEIKR

target: T1, ヒトTFPI (human tissue factor pathway …); assay: ELISA, Fab in bacterial lysate on coated human TFPI

Row | Binder | binding result
5 | TP-2B4 (Fab, V domains shown, HuCAL Gold human Fab from E. coli TG1) VH: QVQLVESGGGLVQPGGSLRLSCAASGFTFSNYSMTWVRQAPGKGLEWVSGISYNGSNTYYADSVKGRFTISRDNSKNTLYLQMNSLRAEDTAVYYCARIYYMNLLAGWGQGTLVTVSS VL: DIELTQPPSVSVAPGQTARISCSGDALGTYYAYWYQQKPGQAPVLVIYGDMNRPSGIPERFSGSNSGNTATLTISGTQAEDEADYYCQSYDAGVKPAVFGGGTKLTVLG | binds
6 | TP-2A8 (Fab, V domains shown, HuCAL Gold human Fab from E. coli TG1; also called Fab-2A8; TP-2A8-Fab) VH: QVQLVESGGGLVQPGGSLRLSCAASGFTFRSYGMSWVRQAPGKGLEWVSSIRGSSSSTYYADSVKGRFTISRDNSKNTLYLQMNSLRAEDTAVYYCARKYRYWFDYWGQGTLVTVSS VL: DIELTQPPSVSVAPGQTARISCSGDNLRNYYAHWYQQKPGQAPVVVIYYDNNRPSGIPERFSGSNSGNTATLTISGTQAEDEADYYCQSWDDGVPVFGGGTKLTVLG | binds
7 | TP-4A7 (Fab, V domains shown, HuCAL Gold human Fab from E. coli TG1) VH: QVQLVESGGGLVQPGGSLRLSCAASGFTFRNYAMNWVRQAPGKGLEWVSVISGSSSYTYYADSVKGRFTISRDNSKNTLYLQMNSLRAEDTAVYYCARADLPYMVFDYWGQGTLVTVSS VL: DIELTQPPSVSVAPGQTARISCSGDALGSKFAHWYQQKPGQAPVLVIYDDSERPSGIPERFSGSNSGNTATLTISGTQAEDEADYYCQAYDSGLLYVFGGGTKLTVLG | binds
8 | TP-2B1 (Fab, V domains shown, HuCAL Gold human Fab from E. coli TG1) VH: QVQLVESGGGLVQPGGSLRLSCAASGFTFSSYSMSWVRQASGKGLEWVSSIKGSGSNTYYADSVKGRFTISRDNSKNTLYLQMNSLRAEDTAVYYCARNGGLIDVWGQGTLVTVSS VL: DIELTQPPSVSVAPGQTARISCSGDNLGNKYAHWYQQKPGQAPVLVIYYDNKRPSGIPERFSGSNSGNTATLTISGTQAEDEADYYCQSWTPGSNTMVFGGGTRLTVLG | binds
9 | TP-3G1 (Fab, V domains shown, HuCAL Gold human Fab from E. coli TG1) VH: QVQLQQSGPGLVKPSQTLSLTCAISGDSVSSNSGGWGWIRQSPGRGLEWLGLIYYRSKWYNAYAVSVKSRITINPDTSKNQFSLQLNSVTPEDTAVYYCARYLGSNFYVYSDVWGQGTLVTVSS VL: DIQMTQSPSSLSASVGDRVTITCRASQGISSYLHWYQQKPGKAPKLLIYGASTLQSGVPSRFSGSGSGTDFTLTISSLQPEDFATYYCQQQNGYPFTFGQGTKVEIKR | binds
10 | TP-2A10 (Fab, V domains shown, HuCAL Gold human Fab from E. coli TG1) VH: QVQLVESGGGLVQPGGSLRLSCAASGFTFTSYSMNWVRQAPGKGLEWVSAISYTGSNTHYADSVKGRFTISRDNSKNTLYLQMNSLRAEDTAVYYCARAFLGYKESYFDIWGQGTLVTVSS VL: DIELTQPPSVSVAPGQTARISCSGDKLGKKYVHWYQQKPGQAPVLVIYGDDKRPSGIPERFSGSNSGNTATLTISGTQAEDEADYYCQAWGSISRFVFGGGTKLTVLG | binds

Other lines, results leading:

Row | binding result | Binder
11 | binds | TP-3H2 (Fab, V domains shown, HuCAL Gold human Fab from E. coli TG1) VH: QVQLVESGGGLVQPGGSLRLSCAASGFTFNSYYMSWVRQAPGKGLEWVSNISSSGSNTNYADSVKGRFTISRDNSKNTLYLQMNSLRAEDTAVYYCARVHYGFDFWGQGTLVTVSS VL: DIELTQPPSVSVAPGQTARISCSGDKLGKYYAYWYQQKPGQAPVLVIYGDSKRPSGIPERFSGSNSGNTATLTISGTQAEDEADYYCSSAAFGSTVFGGGTKLTVLG
12 | binds | TP-3G3 (Fab, V domains shown, HuCAL Gold human Fab from E. coli TG1) VH: QVQLVESGGGLVQPGGSLRLSCAASGFTFSSYSMSWVRQAPGKGLEWVSSISSSSSNTYYGDSVKGRFTISRDNSKNTLYLQMNSLRAEDTAVYYCARMHYKGMDIWGQGTLVTVSS VL: DIQMTQSPSSLSASVGDRVTITCRASQNIHSHLNWYQQKPGKAPKLLIYDASSLQSGVPSRFSGSGSGTDFTLTISSLQPEDFAVYYCQQYYDYPLTFGQGTKVEIKR
13 | binds | TP-2B3 (Fab, V domains shown, HuCAL Gold human Fab from E. coli TG1) VH: QVQLQQSGPGLVKPSQTLSLTCAISGDSVSSNSAAWGWIRQSPGRGLEWLGMIYYRSKWYNSYAVSVKSRITINPDTSKNQFSLQLNSVTPEDTAVYYCARTMSKYGGPGMDVWGQGTLVTVSS VL: DIVLTQSPATLSLSPGERATLSCRASQNIGSNYLAWYQQKPGQAPRLLIYGASTRATGVPARFNGSGSGTDFTLTISSLEPEDFAVYYCQQLNSIPVTFGQGTKVEIKR
14 | binds | TP-2B8 (Fab, V domains shown, HuCAL Gold human Fab from E. coli TG1) VH: QVQLVQSGAEVKKPGASVKVSCKASGYTFTGNSMHWVRQAPGQGLEWMGTIFPYDGTTKYAQKFQGRVTMTRDTSISTAYMELSSLRSEDTAVYYCARGVHSYFDYWGQGTLVTVSS VL: DIELTQPPSVSVAPGQTARISCSGDNLRGYYASWYQQKPGQAPVLVIYEDNNRPSGIPERFSGSNSGNTATLTISGTQAEDEADYYCQSWDSPYVHVFGGGTKLTVLG
15 | binds | TP-4B7 (Fab, V domains shown, HuCAL Gold human Fab from E. coli TG1) VH: QVQLQQSGPGLVKPSQTLSLTCAISGDSVSSNSAAWSWIRQSPGRGLEWLGIIYKRSKWYNDYAVSVKSRITINPDTSKNQFSLQLNSVTPEDTAVYYCARWHSDKHWGFDYWGQGTLVTVSS VL: DIVMTQSPLSLPVTPGEPASISCRSSQSLVFSDGNTYLNWYLQKPGQSPQLLIYKGSNRASGVPDRFSGSGSGTDFTLKISRVEAEDVGVYYCQQYDSYPLTFGQGTKVEIKR
